# According to patent EP4814000A1:
# Legend:
# 003m-P215S-1×GCN4t (RSV) [1] = test: flow cytometry, Expi293F cells, Lipofectamine 2000-mRNA; row 003m-P215S-1×GCN4t-opti1
# 003m-P215S-1×GCN4t (RSV) [2] = test: flow cytometry, Expi293F cells, Lipofectamine 2000-mRNA; row 003m-P215S-1×GCN4t-opti5
# 003m-P215S-1×GCN4t (RSV) [3] = test: flow cytometry, Expi293F cells, Lipofectamine 2000-mRNA; row 003m-P215S-1×GCN4t-opti3
# 003m-P215S-1×GCN4t (RSV) [4] = test: flow cytometry, Expi293F cells, mRNA-LNP (RL151)
# 003m-P215S-S-3N = test: flow cytometry, Expi293F cells, mRNA-LNP (RL151)
# 003m-P215S-ΔF111-S-3N = test: flow cytometry, Expi293F cells, mRNA-LNP (RL151)
# 003m-P215S (RSV) [5] = test: flow cytometry, Expi293F cells, mRNA-LNP (RL151)
# 003m-P215S-ΔF111 (RSV) = test: flow cytometry, Expi293F cells, mRNA-LNP (RL151)
# [6] = molecular target: 003m-P215S-ΔF111-1×GCN4t (RSV); test: flow cytometry, Expi293F cells, mRNA-LNP (RL151)
# [7] = molecular target: 003m-P215S-NAG-1×GCN4t (RSV); test: flow cytometry, Expi293F cells, Lipofectamine 2000-mRNA
# [8] = molecular target: 003m-P215S-KST-1×GCN4t (RSV); test: as above
# 003m-P215S-1×GCN4t (RSV) [9] = test: as above
# [10] = molecular target: 003m-P215S-DELL-1×GCN4t (RSV); test: as above
# [11] = molecular target: RSV B-003m-P215S-1×GCN4t-C486D-C489D (RSV B); test: flow cytometry, Expi293F cells, Lipofectamine 2000-mRNA; mRNA RQ1
# [12] = molecular target: RSV B-003m-P215S-1×GCN4t-F190S (RSV B); test: as above
# [13] = molecular target: RSV B-003m-P215S-1×GCN4t-ori_linker (RSV B); test: as above
# [14] = molecular target: RSV B-003m-P215S-1×GCN4t-C155S-C290S (RSV B); test: as above
# [15] = molecular target: RSV B-003m-P215S-1×GCN4t-G46S (RSV B); test: as above
# [16] = molecular target: RSV B-003m-P215S-1×GCN4t-C102A-C362S (RSV B); test: as above
# RSV B-003m-P215S (RSV B) = test: as above
# [17] = molecular target: RSV B-003m-P215S-1×GCN4t (RSV B); test: as above
# [18] = molecular target: RSV B-003m-P215S-1×GCN4t-D92E (RSV B); test: as above
# 003m-P215S-2×GCN4t (RSV) = test: flow cytometry, Expi293F cells, Lipofectamine 2000-mRNA
# 003m-P215S (RSV) [19] = test: as above
# 009m-DS (RSV) = test: flow cytometry, Expi293F cells transfected with the antigen's mRNA
# 008m-Cys (RSV) = test: as above
# 010m-Cys-ΔCys (RSV) = test: as above
# 009m-Cys (RSV) = test: as above
# 010m-Cys (RSV) = test: as above
# 007m-Cys (RSV) = test: as above
# 003m-ΔCys (RSV) = test: as above
# 009m-Cys-ΔCys (RSV) = test: as above
# DS-Cav1 (RSV) = test: as above
# 008m-Cys-ΔCys (RSV) = test: as above
# 008m-DS (RSV) = test: as above
# 003m-DS (RSV) = test: as above
# 007m-Cys-ΔCys (RSV) = test: as above
# 010m-DS (RSV) = test: as above
# 007m-DS (RSV) = test: as above
# 003m-P215S-1×GCN4t (RSV) [20] = test: flow cytometry, Expi293F cells, Lipofectamine 2000-mRNA; row 003m-P215S-1×GCN4t
substance,measurement,setting,value
AM14-AF488 (antibody),MFI,003m-P215S-1×GCN4t (RSV) [1],3380
same,MFI,003m-P215S-1×GCN4t (RSV) [2],2980
same,MFI,003m-P215S-1×GCN4t (RSV) [3],3430
same,MFI,003m-P215S-1×GCN4t (RSV) [4],4180
same,MFI,003m-P215S-S-3N,5920
same,MFI,003m-P215S-ΔF111-S-3N,49100
same,MFI,003m-P215S (RSV) [5],20000
same,MFI,003m-P215S-ΔF111 (RSV),45200
same,MFI,[6],821
same,MFI,[7],45700
same,MFI,[8],33800
same,MFI,003m-P215S-1×GCN4t (RSV) [9],21600
same,MFI,[10],31400
same,MFI,[11],8130
same,MFI,[12],11100
same,MFI,[13],175
same,MFI,[14],48400
same,MFI,[15],4140
same,MFI,[16],3640
same,MFI,RSV B-003m-P215S (RSV B),496000
same,MFI,[17],7340
same,MFI,[18],763
same,MFI,003m-P215S-2×GCN4t (RSV),2680
same,MFI,003m-P215S (RSV) [19],338000
same,MFI,009m-DS (RSV),147000
same,MFI,008m-Cys (RSV),258000
same,MFI,010m-Cys-ΔCys (RSV),153000
same,MFI,009m-Cys (RSV),247000
same,MFI,010m-Cys (RSV),333000
same,MFI,007m-Cys (RSV),610000
same,MFI,003m-ΔCys (RSV),8380
same,MFI,009m-Cys-ΔCys (RSV),148000
same,MFI,DS-Cav1 (RSV),122000
same,MFI,008m-Cys-ΔCys (RSV),181000
same,MFI,008m-DS (RSV),139000
same,MFI,003m-DS (RSV),10100
same,MFI,007m-Cys-ΔCys (RSV),430000
same,MFI,010m-DS (RSV),107000
same,MFI,007m-DS (RSV),144000
same,MFI,003m-P215S-1×GCN4t (RSV) [20],30100
D25-AF488 (antibody),MFI,003m-P215S-1×GCN4t (RSV) [1],5680
same,MFI,003m-P215S-1×GCN4t (RSV) [2],4620
same,MFI,003m-P215S-1×GCN4t (RSV) [3],4990
same,MFI,003m-P215S-1×GCN4t (RSV) [4],3880
same,MFI,003m-P215S-S-3N,6730
same,MFI,003m-P215S-ΔF111-S-3N,44800
same,MFI,003m-P215S (RSV) [5],16400
same,MFI,003m-P215S-ΔF111 (RSV),37300
same,MFI,[6],682
same,MFI,[7],33900
same,MFI,[8],31600
same,MFI,003m-P215S-1×GCN4t (RSV) [9],32800
same,MFI,[10],35700
same,MFI,[11],8170
same,MFI,[12],13500
same,MFI,[13],480
same,MFI,[14],94600
same,MFI,[15],4570
same,MFI,[16],13900
same,MFI,RSV B-003m-P215S (RSV B),364000
same,MFI,[17],8770
same,MFI,[18],2250
same,MFI,003m-P215S-2×GCN4t (RSV),5120
same,MFI,003m-P215S (RSV) [19],270000
same,MFI,009m-DS (RSV),154000
same,MFI,008m-Cys (RSV),196000
same,MFI,010m-Cys-ΔCys (RSV),136000
same,MFI,009m-Cys (RSV),199000
same,MFI,010m-Cys (RSV),252000
same,MFI,007m-Cys (RSV),229000
same,MFI,003m-ΔCys (RSV),16200
same,MFI,009m-Cys-ΔCys (RSV),136000
same,MFI,DS-Cav1 (RSV),159000
same,MFI,008m-Cys-ΔCys (RSV),173000
same,MFI,008m-DS (RSV),150000
same,MFI,003m-DS (RSV),37100
same,MFI,007m-Cys-ΔCys (RSV),369000
same,MFI,010m-DS (RSV),118000
same,MFI,007m-DS (RSV),159000
same,MFI,003m-P215S-1×GCN4t (RSV) [20],54200
